# T1: human FXII (human, UniProt P00748 20-615)
# T1 sequence (looked up): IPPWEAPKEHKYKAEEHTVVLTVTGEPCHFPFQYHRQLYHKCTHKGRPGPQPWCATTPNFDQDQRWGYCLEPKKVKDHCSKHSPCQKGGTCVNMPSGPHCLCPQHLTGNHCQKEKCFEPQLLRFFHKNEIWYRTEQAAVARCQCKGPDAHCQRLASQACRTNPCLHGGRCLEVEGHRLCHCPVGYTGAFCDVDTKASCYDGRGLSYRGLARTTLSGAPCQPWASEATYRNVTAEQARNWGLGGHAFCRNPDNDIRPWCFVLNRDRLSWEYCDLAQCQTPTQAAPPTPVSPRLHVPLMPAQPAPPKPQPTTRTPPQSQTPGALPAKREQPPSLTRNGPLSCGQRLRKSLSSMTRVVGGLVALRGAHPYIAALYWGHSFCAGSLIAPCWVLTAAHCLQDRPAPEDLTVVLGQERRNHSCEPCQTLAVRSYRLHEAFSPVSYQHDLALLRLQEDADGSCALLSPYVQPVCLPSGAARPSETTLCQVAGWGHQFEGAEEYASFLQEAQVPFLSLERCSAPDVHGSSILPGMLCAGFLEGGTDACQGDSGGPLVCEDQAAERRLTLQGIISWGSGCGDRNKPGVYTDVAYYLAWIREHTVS
# T2: human FVIIa (human, UniProt P08709 61-212; P08709 213-466)
# T2 sequence (looked up) 1: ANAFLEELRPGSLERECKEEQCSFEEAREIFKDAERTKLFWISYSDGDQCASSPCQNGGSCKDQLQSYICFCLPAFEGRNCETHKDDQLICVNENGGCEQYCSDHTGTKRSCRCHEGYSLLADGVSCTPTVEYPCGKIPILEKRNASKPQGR
# T2 sequence (looked up) 2: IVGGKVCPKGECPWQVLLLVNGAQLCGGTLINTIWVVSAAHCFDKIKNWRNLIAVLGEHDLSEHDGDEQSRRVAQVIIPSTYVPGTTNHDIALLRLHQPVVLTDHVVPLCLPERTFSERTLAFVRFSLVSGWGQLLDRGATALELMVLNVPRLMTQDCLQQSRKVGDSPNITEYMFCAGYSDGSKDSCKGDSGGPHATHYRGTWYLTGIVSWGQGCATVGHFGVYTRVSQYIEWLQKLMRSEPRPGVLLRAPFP
# B1: anti-human FXIa full-length human monoclonal antibody 14624 (antibody, IgG1, V domains shown)
# VH: QVQLVQSGAEVKKPGASVKVSCKVSGYTLTELSMHWVRQAPGKGLEWMGGFDPEDGETIYAQKFQGRVTMTEDTSTDTAYMELSSLRSEDTAVYYCATDRPVRGVIPYYYYYGMDVWGQGTLVTVSS
# VL: QSALTQPPSASGTPGQTVTISCSGSRSNIGSRPVNWYQHLPGTAPKLLIYIDHQRPSGVPDRFSGSKSGTSASLAISGLQSDDEADYYCAAWDDSLDAYVFGTGTKVTVL
# notes: Full-length IgG1 made in CHO cells
# What was measured:
# [1] = biological target: T3, human Factor XIa, activated form of coagulation factor XI (human, UniProt P03951 19-387; P03951 388-625); experiment: ELISA
# T3 construct: also called FXIa; human FXIa
# [2] = biological target: T3, human Factor XIa, activated form of …; experiment: cell-based or functional assay
# [3] = biological target: T3, human Factor XIa, activated form of …; experiment: SPR, BIAcore T200, antibody captured on Protein A chip, FXIa as analyte, 1:1 Langmuir fit
# Protocol: (2) Sample testing conditions: The binding characteristics of FXIa and antibodies were preliminarily determined and evaluated in a manual mode. 10 nM was determined as the maximum analytical concentration of FXIa. […] During the sample analysis, the flow rate was set to be 30 μL/min, the binding time was 120 s, and the dissociation time was 600 s.
# (3) Regeneration conditions: With reference to other experiments, preliminary determination and evaluation were performed in a manual mode. […] During the regeneration, the flow rate was set to be 30 μL/min, and the regeneration time was 30 s.
# (4) Kinetic parameter determination: The experiment was carried out in a multi-cycle mode, in which the response signal took the analysis time as the horizontal coordinate and the response value as the vertical coordinate. The obtained data were fitted by BIAcore T200 analysis software, during which a 1:1 Langmuir binding model was used as a fitting model, so as to determine the kinetic constants such as an association rate constant, a dissociation rate constant, and an association-dissociation constant.
# human FIXa = human FIXa (human, UniProt P00740 47-191; P00740 227-461); experiment: ELISA, antibody dilution series
# Protocol: (§1) In this example, the binding ability of coagulation factors PK, PKa, FXII, FXIIa, FIX, FIXa, FX, FXa, FVIIa, and Thrombin to antibodies at a series of diluted concentrations was analyzed using ELISA.
# human FXII = biological target: T1, human FXII; experiment: ELISA, antibody dilution series
# Protocol: as §1
# human PK = human PK (human, UniProt P03952 20-638); experiment: ELISA, antibody dilution series
# Protocol: as §1
# human Thrombin = human Thrombin (human, UniProt P00734 328-363; P00734 364-622); experiment: ELISA, antibody dilution series
# Protocol: as §1
# human FIX = human FIX (human, UniProt P00740 47-461); experiment: ELISA, antibody dilution series
# Protocol: as §1
# human FXa = human FXa (human, UniProt P00742 41-179; P00742 235-488, limits assumed); experiment: ELISA, antibody dilution series
# Protocol: as §1
# human FX = human FX (human, UniProt P00742 41-488); experiment: ELISA, antibody dilution series
# Protocol: as §1
# human FVIIa = biological target: T2, human FVIIa; experiment: ELISA, antibody dilution series
# Protocol: as §1
binder,measurement,setting,value
B1,EC50,[1],56 pM
same,"IC50 (nM), inhibition of human FXIa hydrolysis of S-2366",[2],47.3 nM
same,Kd,[3],23.1 pM
same,koff,[3],0.00245 s⁻¹
same,kon,[3],1.06e+08 M⁻¹ s⁻¹
same,binding result,human FIXa,no binding
same,binding result,human FXII,no binding
same,binding result,human PK,no binding
same,binding result,human Thrombin,no binding
same,binding result,human FIX,no binding
same,binding result,human FXa,no binding
same,binding result,human FX,no binding
same,binding result,human FVIIa,no binding

# From patent publication US20220153872A1 (MAB LEGEND BIOTECH, published 2022)
